Assays:
[1] = target: the molecule itself; assay: cryo-EM structure; γ-TuSC/Spc72^1-599/FLAG-Stu2 complex purified via FLAG-Stu2; single particle analysis, γ-TuSC unit within oligomers at 3.6 Å, 14-spoked ring at 8.2 Å
[2] = target: T1, γ-tubulin small complex (γ-TuSC) from C. albicans: His-Spc97, His-Spc98, γ-tubulin (Tub4) (C. albicans, UniProt Q59PZ2 1-871; A0A1D8PS42 1-785; O93807 1-502); assay: SEC; FLAG-purified γ-TuSC/His-Spc72^1-599/FLAG-Stu2 on Superose 6 Increase 10/300 in HB100 buffer (40 mM K-HEPES pH 7.4, 100 mM KCl); fractions by SDS-PAGE, Western blot and gel densitometry; ring-like oligomers also seen by negative stain EM; details: both partners purified
T1 construct: Spc97 (homologue of human GCP2), C. albicans; Spc98 (homologue of human GCP3), C. albicans; γ-tubulin (Tub4), C. albicans; For MST the purified γ-TuSC was labelled with an amine-reactive dye (GREEN-NHS kit); also called γ-TuSC unit; γ-TuRC (as ring of seven γ-TuSCs); source: Sf21 insect cells (baculovirus); copies: 1 + 1 + 2

B1: His-Spc72^1-599 (C. albicans), co-expressed in insect cells (domain or fragment, UniProt Q5AGV5 1-599, looked up)
chain: MSNLSINESNDNSNVSILSNKSGAQSSTNSSPNLIVFKQPEDLSIQLQQQQQGTQEDTPEEEEEEEEEMEQITQLEVQQENQPDTLSSSPFISRPNSPLDDIIRPQGTSSPSLTIRDSYSSQVDINISNLHKSLNEMRLSTDPVDNNNNNNKVNKNNPTNSDISNDDIITIDNLTPSRIQPKNISPWRQFRPTLRGSPESTPRSLFQNKPNLKFNNGLSPTNGSRDMVTNNIATTTKSREEELNKRIVNYKIQLKLMKNFLQELIDRNNLDPHEFHTLLRRNNNNIMNNENNPLSTSLSQTSTLEIQHQNLQIELDEALELNKQLYNKIETANKEISDKDLQISNYESRINLINYSVDELIYILINEYDKNNYSHGGSNTTSPGKETLQQSISAQLEVKLNVLKLELMTRLDQSHQYNNKPHDLFTPPYTSSEYGVSTNNVANKNDLEGYIHIIEDLIKTVDELELTCENYKANKNELQNQLVEQINESIRIKNNFQIMSNKFNQLRQSLSEKENDKNLDEFSKNNHQQQQQQQIQQLEQKLIEYEKCITILQDELDQYKQPSDTTNTTNNNNNNNNNNNRSSYSSYNNHRNSSLNELN
notes: Only the CM1 motif is resolved in the cryo-EM map, as a parallel dimeric coiled coil; source: Sf21 insect cells, MultiBac co-expression with γ-TuSC components and FLAG-Stu2 or His-GFP-Mzt1
[1]
  stoichiometry N: 2
[2]
  stoichiometry N: ~2 Spc72^1-599 per γ-TuSC (Spc97:Spc98:γ-tubulin:Spc72^1-599)
